# Measurements taken from PMC10957665, “The C-terminal selenenylsulfide of extracellular/non-reduced thioredoxin reductase endows this protein with selectivity to small-molecule electrophilic reagents under oxidative conditions” (Frontiers in Molecular Biosciences, 2024).
# Columns and labels:
# [1] = target: the molecule itself; assay: cross-linking; diamide-induced covalent (disulfide/selenenylsulfide) complex: TrxR1 or a TrxR1 mutant with a 2-fold concentration of hTrx1, or one protein alone, 10 mM diamide, 30 min at room temperature; non-reducing SDS-PAGE, Coomassie stain
# [2] = target: the molecule itself; assay: cross-linking; H2O2 as thiol oxidant in place of diamide; unpublished (Zhong's observation)
protein,measurement,setting,value
"Cys73Ala mutant of hTrx1 (natural protein, human, UniProt P10599 1-105, looked up, Human cytosolic thioredoxin (hTrx1) with Cys73 replaced by Ala; also called hTrx1 mutant in which Cys73 was substituted by Ala) MVKQIESKTAFQEALDAAGDKLVVVDFSATWCGPCKMIKPFFHSLSEKYSNVIFLEVDVDDCQDVASECEVKAMPTFQFFKKGQKVGEFSGANKEKLEATINELV",stoichiometry N,[1],2
"human cytosolic thioredoxin (hTrx1) (natural protein, UniProt P10599 1-105, looked up, Human cytosolic thioredoxin (hTrx1); freshly DTT-treated, free thiol on surface Cys73; also called human cytosolic Trx; source: purified according to a previously described method (Zhai and Zhong, 2010); incubated with DTT and dialysed before use) MVKQIESKTAFQEALDAAGDKLVVVDFSATWCGPCKMIKPFFHSLSEKYSNVIFLEVDVDDCQDVASECEVKCMPTFQFFKKGQKVGEFSGANKEKLEATINELV",stoichiometry N,[2],2
